As a reminder, the Km is the concentration of substrate that gives half-maximal velocity.

These results are taken from patent publication US7786071B2 (priority 2003, dated 2010).

Where two headings read alike, the source gives them in different places.

The format of series [1] is biochemical.
The format of series [2] is biochemical. The settings on record: read-out: 2NA hydrolysis KM.
Series [3] is classed as biochemical. The source holds these as a separate data set.
Series [4] is classed as biochemical. The settings on record: read-out: DEPCyC hydrolysis KM.
[5] abbreviates: read-out: Paraxon hydrolysis KM.

B1: RabPON3: wild-type rabbit PON3 expressed in E. coli fused to thioredoxin; SEQ ID NO: 30, 41 (protein, listed as Oryctolagus cuniculus)
chain: MAKLLLLTLLGASLAFVGERLLAFRNSFGAVQELEPVEPQNCVLIEGLENGSEDIDILPSGLAFISSGLKYPGMPNFAPDEPGKIFLIDMNEKNPRAQELEISNGFEKESFNPHGISTFIDKDHTVYLYVVNHPHMKSTVEIFKFEEQQRSLVHLKTIKHELLKSVNNIVVLGPEQFYATRDHYFTNYVLALLEMFLDLHWTSVLFYSPKEVKVVAKGFSSANGITVSLDKKYVYVADATAKNVHVMEKHDNWDLTELKVIHLDTLVDNLSVDPATGDILAGCHPNGMKLLNYNPEDPPGSEVLRIQNVLSEKPRVSTVYTNDGSVLQGSTVASVYQGKILIGTIFHKTLYCVL
modifications: thioredoxin fusion
In the case of B1, the figures for the Km in series [1] (setting [5]) and in series [2] were 1300 µM and 211 µM, respectively.

B2: G3A5: third generation trx-rPON3 variant; SEQ ID NO: 46, 52 (protein)
chain: MGELLLLTLLGASLAFVGEMFLAFRERVNASREVEPVEPQNCVLIEGLENGSEDIDILPNGLAFISSGLKYPGMPNFAPDEPGKIFLMDLNEQNPRAQELEISNGFEKESFNPHGISTFIDKDHTVYLYVVNHPNMDSTVEIFKFEERQRSLVHLKTIKHELLKSVNDIVVLGPEQFYATRDRYFTNYVLALLEMILDPHWTSVVFYSPKEVKVVAQGFSSANGITVSLDKKYVYVADATAKNVHVMEKHDNWDLTPVKVIQLGTLVDNLSVDPATGDILAGCHPNPMKLLNYNPEDPPGSEVLRIRNVLSEKPRVSTVYTNDGSVLQGTSVASVYQGKILIGTIFHKTLYCDL
modifications: thioredoxin fusion; In vitro evolved PON variant G3A5
For B2, the Michaelis-Menten constant (Km) in series [1] (setting [5]) is 510 µM.

B3: G2C2: second-generation trx-rPON3 variant; SEQ ID NO: 45, 51 (protein)
chain: MAKLLLLTLLGVGLSLVGERLLAFRNSFGAVQELEPVEPQNCVLIEGLENGSEDIDILPSGLAFISTGLKYPGMPNFAPDEPGKIFLMDLNEQNPRAQALEISGGFDKELFNPHGISTFIDKDNTVYLYVVNHPHMESTVEIFKFEEQQHSLIHLKTIKHELLKSVNDIVVLGPEQFYATRDHYFTNYVLARLEMILDLRWTYVLFYSPREVKVVAKGFSSANGITVSLDKKYVYVADATAKNVHVMEKHDNWDLTQLKVIQLGTLVDNLSVDPATGDILAGCHPNPMKLLNYNPEDPPGSEVLRIQNVLSEKPRVSTVYTNDGSVLQGTSVASVYQGKILIGTIFHKALHCDL
modifications: thioredoxin fusion; In vitro evolved PON variant G2C2
For the molecule B3, the Michaelis constant (Km) was 800 µM in series [1] (setting [5]) and 260 µM in series [2].

B4: G2D6: second-round directly evolved PON1 variant, thioredoxin-fused; SEQ ID NO: 27 (DNA), 59 (protein) (protein)
chain: MAKLTALTLLGLGLALFDRQKSSFQTRFNVHREVTPVELPNCNLVKGIDNGSEDLEILPNGLAFISSGLKYPGIMSFDPDKSGKILLMDLNEEDPVVLELGITGSTFDLSSFNPHGISTFTDEDNTVYLLVVNHPDSSSTVEVFKFQEKERSLLHLKTIRHKLLPSVNDIVAVGPESFYATNDHYFADPYLKSWEMHLGLAWSFVTYYSPNDVRVVAEGFDFANGINISPDGKYVYIAELLAHKIHVYEKHANWTLTPLKSLDFNTLVDNISVDPVTGDLWVGCHPNGMRIFYYDPENPPGSEVLRIQDILSKEPKVTVVYAENGTVLQGSTVAAVYKGKLLIGTVFHKALYCDL
modifications: thioredoxin fusion; In vitro evolved PON variant G2D6
For B4, in series [3] (pH 8), the “kcat (PheAc)” value was 562 s⁻¹. For the same molecule, the Km in series [3] (pH 8, read-out: KM(PheAc)) was 320 µM; in series [1] (pH 8, read-out: KM(Paraoxon)), 100 µM. Also, the “kcat(Paraoxon)” value in series [1] (pH 8) came to 0.98 s⁻¹.

B5: G1A7: first generation trx-rPON3 variant; SEQ ID NO: 43, 49 (protein)
chain: MAKLLLLTLLGVGLSLVGERLLAFRNSFGAVQELEPVEPQNCHLIEGLENGSEDIDILPSGLAFISSGLKYPGMPAFAPDKPGRIFLMDLNEQNPEAQALEISGGLDQESLNPHGISTFIDKDSTAYLYVVNHPNMDSTVEIFKFEEQQRSLVHMKTIKHELLKSVNNIVVLGPEQFYATRDHYFTNSLLSFFEMILDPHWTSVVFYSPREVKVVAKGFSSANGITVSLDKKYVYVADATAKNVHVMEKHDNWDLTELKVIHLDTLVDNLTVDPATGDILAGCHPNPMKLLIYNPEDPPGSEVLRIQDSLSDKPRVSTLYANNGSVLQGTSVASVYHGKILIGTIFHKTLYCDL
modifications: thioredoxin fusion; In vitro evolved PON variant G1A7
On to B5, for which the values for the Km in series [1] (setting [5]) and in series [2] were 2500 µM and 160 µM, respectively.

B6: G1B11: first generation trx-rPON3 variant; SEQ ID NO: 44, 50 (protein)
chain: MAKLLLLTLLGACLALIGERLLNFRERVSTTREIKATEPQNCHLIEGLENGSEDIDILPSGLAFISSGLKYPGMPNFAPDEPGKIFLIDMNEQNPRAQALEISGGFDKELFNPHGISTFIDKDHTVYLYVVNHPNMDSTVEIFKFEEQQHSLIHLKTLKHELLKSVNDIVVLGPEQFYATRDHYFTNYVLALLKMFLDLRWTSVLFYSPKEVKVVAKGFSSANGITVSLDKKYVYVADATAKNVHVMEKHDNWDLTELKVIQLGTLVDNLTVDPATGDILAGCHPNPMKLLIYNPEDPPGSEVLRIQDVLSEKPRVSTVYANNGSVLQGSTVASVYQGKILIGTIFHKTLYCVL
modifications: thioredoxin fusion; In vitro evolved PON variant G1B11
As to B6, the Michaelis constant (Km) was found to be 1100 µM in series [1] (setting [5]) and 180 µM in series [2].

B7: G2E6: second-round directly evolved PON1 variant whose 3D structure was solved; SEQ ID NO: 28 (DNA), 60 (protein); 'wt' of Table 12 (protein)
chain: MAKLTALTLLGMGLALFDRQKSSFQTRFNVHREVTPVELPNCNLVKGIDNGSEDLEILPNGLAFISSGLKYPGIMSFDPDKSGKILLMDLNEKEPAVSELEIIGNTLDISSFNPHGISTFIDDDNTVYLLVVNHPGSSSTVEVFKFQEEEKSLLHLKTIRHKLLPSVNDIVAVGPEHFYATNDHYFIDPYLKSWEMHLGLAWSFVTYYSPNDVRVVAEGFDFANGINISPDGKYVYIAELLAHKIHVYEKHANWTLTPLRVLSFDTLVDNISVDPVTGDLWVGCHPNGMRIFFYDAENPPGSEVLRIQDILSEEPKVTVVYAENGTVLQGSTVAAVYKGKLLIGTVFHKALYCDL
modifications: In vitro evolved PON variant G2E6
Regarding B7, in series [3] (pH 8), the “kcat (PheAc)” value was 965 s⁻¹. In addition, the Km in series [3] (pH 8, read-out: KM(PheAc)) was found to be 430 µM; in series [1] (pH 8, read-out: KM(Paraoxon)) it was 89 µM. For the same molecule, the “kcat(Paraoxon)” value in series [1] (pH 8) was found to be 0.87 s⁻¹.

B8: G3C9.10: G3C9 variant with mutations L69V and E218D; SEQ ID NO: 62, 63 (protein)
chain: MAKLTALTLLGLGLALFDGQKSSFQTRFNVHREVTPVELPNCNLVKGVDNGSEDLEILPNGLAFISSGVKYPGIMSFDPDKSGKILLMDLNEEDPVVLELGITGNTLDISSFNPHGISTFTDEDNTVYLLVVNHPDSSSTVEVFKFQEEEKSLLHLKTIRHKLLPSVNDIVAVGPEHFYATNDHYFADPYLKSWEMHLGLAWSFVTYYSPNDVRVVADGFDFANGINISPDGKYVYIAELLAHKIHVYEKHANWTLTPLKSLDFDTLVDNISVDPVTGDLWVGCHPNGMRIFYYDPKNPPGSEVLRIQDILSEEPKVTVVYAENGTVLQGSTVAAVYKGKLLIGTVFHKALYCEL
modifications: In vitro evolved PON variant G3C9.10
Take B8: the Km in series [4] turned out to be 50 µM; in series [3] (read-out: Phenylacetate hydrolysis KM), 760 µM.

B9: G3H9: third generation trx-rPON3 variant; SEQ ID NO: 48, 54 (protein)
chain: MAKLLLLTLLGVGLSLVGERLLAFRNSFGAVQELESVEPQNCVLIEGLENGSEDIDILPSGLAFISSGLKYPGMPNFAPDEPGKIFLIDMNEKNPRAQELKISNGFEKESFNPHGISTFIDKDHTVYLYVVNHPNMDSTVEIFKFEEQQRSLVHLKTIKHELLKSVNDIVVLGPEQFYATRDHYFTNSLLSFFEMILDLRWTSVVFYSPKEVKVVAKGFSSANGITVSLDKKYVYVADATAKNVHVMEKHDNWDLTPVKVIQLGTLVDNLTVDPATGDILAGCHPNPMKLLNYNPEDPPGSEVLRIQNVLSEKPRVSTVYTNDGSVLQGTSVASVYQGKILIGTIFHKALYCDL
modifications: thioredoxin fusion; In vitro evolved PON variant G3H9
B9: the Km in series [1] (setting [5]) is 800 µM.

B10: G1C4: first-round directly evolved PON1 variant, thioredoxin-fused; SEQ ID NO: 26 (DNA), 58 (protein) (protein)
chain: MAKLLALTLVGLGLALFDGQKSSFQTRFNVHREVTPVELPNCNLVKGIETGAEDLEILPNGLAFISSGLKYPGIMSFDPDKSGKILLMDLNEEDPVVLELGITGSTFDLSSFNPHGISTFTDEDNTVYLLVVNHPDSSSTVEVFKFQEKEKSLLHLKTIRHKLLPSVNDIVAVGPEHFYATNDHYFIDPYLKSWEMHLGLAWSFVTYYSPNDVRVVAEGFDFANGINISPDGKYVYIAELLAHKIHVYEKHANWTLTPLKSLDFNTLVDNISVDPVTGDLWVGCHPNGMRIFYYDPKNPPASEVLRIQDILSEDPKITVVYAENGTVLQGTTVASVYKGKLLIGTVFHKALYCDL
modifications: thioredoxin-fused; In vitro evolved PON variant G1C4
For B10, the “kcat (PheAc)” value in series [3] (pH 8) came out at 552 s⁻¹. For the same molecule, the Michaelis constant (Km) in series [3] (pH 8, read-out: KM(PheAc)) came to 540 µM; in series [1] (pH 8, read-out: KM(Paraoxon)), 120 µM. Besides, in series [1] (pH 8), the “kcat(Paraoxon)” value is 0.54 s⁻¹.

B11: G3G3: third generation trx-rPON3 variant; SEQ ID NO: 47, 53 (protein)
chain: MAKLLLLTLLGASLAFVGERLLAFRDSFGAVQELEPVEPQNCVLIEGLENGSEDIDILPSGLAFISSGLKYPGMPNFAPDEPGKIFLIDMNEKNPRAQALEISGGFDKESFNPHGISTFIDKDHTVYLYVVNHPNMDSTVEVFKFEEQQHSLIHLKTIKHELLKSVNDIVVLGPEQFYATRDHYFTNSLLSFFEMILDLRWTSVLFYSPREVKVVAKGFSSANGITVSLDKKYVYVADVAAKNIHIMEKHDNWDLTELKVIHLDTLVDNLTVDPATGDILAGCHPNPMKLLNYNPEDPPGSEVLRIQNVLSEKPRVSTVYANNGSVLQGTSVASVYHGKILIGTIFHKTLYCDL
modifications: thioredoxin fusion; In vitro evolved PON variant G3G3
Take B11: the Michaelis-Menten constant (Km) in series [2] was 650 µM.
